# In the domain aggregation screens of Martell et al. (2025):
# Assay: soluble fraction after stress (log2 fold change); higher = more stays soluble; pooled small domains, quantitative proteomics
# Conditions: stress: 75 degC
# 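Note: 20 min heating vs room temperature control held 20 min.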
row,Sequence,soluble fraction (log2)
1,HMVSKQVTVNGIQYYQYTVQKSEGFYAISTKFGVTQDDIILANPSTKEGLRVGQEILIPIKT,-2.62
2,HMVSLLDWAYKQVRRMLFSGDLPQGQKIVVAQLANQLSISPTPVKEALNRLAVEGLLEAVPRRGFQVR,-0.548
3,HMVSQELIMLGNRIREYRKERGFSQEILAEKSGVSTNTISRIEGGQMAMSVGILQRIVKALGVDANVMLG,-2.32
4,HMVSQKPKERELWFREQLELAGLRLDPHAISAINETLGNDTGRFPGIIDTLLSTYGAGKKLSYDDVVMFL,-0.638
5,HMVSRAFEEETVKRAESGNQEAALFALELAIREIEHSYEKSKIIDYFVSKVRLFLDNGVSLERALGIH,0.196
6,HMVSRKIENPYWANKEKQHIIAEFFYPDTNKRVTASIMNDGSNRDYEEILRGYSIEQIDANTNRRLEER,0.566
7,HMVSSEGLASGIERMLVEFGLETDKGRRFAMWSLLYMLGSAPDLDVAFKDPRDREAARTFMDLLDQANA,-1.57
8,HMVSSVAAISQMIDEKDRYTSEHSHRVAEYARLIGAHMGFAGEELDSLYRSALLHDIGKIAVPDAILNK,-0.627
9,HMVSTDPVHLFNLGTANRRAGRASEAITSYRKFMEAAPQHPQVPEARAYIHDMEVLLQERQKSEQAASQLS,0.143
10,HMVSTSVTVTGDLNVRADSRADSDLVGALIPGQTVTRLAVLDNGWSKIRFDDGAGTVVEGYVLSEYLQADG,0.335
11,HMVSVEINTVERDETFRKMFTSGWKPENRIQALAVEQAKKNGLGRMSEVAGLASFRGIWKQATEQVALEA,-0.213
12,HMVSVLDHIVGIGAKRRQSLWNHFGTIDKIKAASIDELLKAPGMNRPSAEAVYYFFEAQRQLRGK,-1.22
13,HMVTEKNALTIEIEDLTKRFGNQRESLLPILQEVQLKHGHISDFAQQEIARLLDIHPVEVYGVVTFFSFLS,-3
14,HMVTGSIYERKGIYYAIVSYYVDGRRKQKSVSTGLSVKGNKRRALEFLENLKRTYETKESMENMD,-3.79
15,HMVTIEEMMDRLLTRVQRAVNMSFSEFSGEAKEKVEVIVSFLALLELVKQGAVDVLQHENFSDIRIENT,-0.661
16,HMVTKQKKLVLTIIERSHGHLSAEEIFFRAREEMPNIALGTVYRNLNSLTEEGIVRRITLPGTSDRFDT,-2.91
17,HMVTKTTYAYERLKREIMDGTLGQGEKLVVNAISQRYQVSPMPIREALLKLEQEGLVQSAPHRGAWVHK,-0.776
18,HMVTNELFGTRLRAFRKEKGLTIEQLAERVGLSPNYLGDIERGKKLPSMATFIRLVNELDISADEL,-1.52
19,HMVTQVDYGTFLTRIDEGKVKSVEIQDNQIAFTAIDEAGKENIYVTGKVNDPELVDRLLAADIEDFSQVIP,0.0911
20,HMVTTTEAAKMLLVNAGHDVIKDGLTGASWASNTMKLADADGLLASVATKPNDALPRQYAAQMIYN,0.103
21,HMVVANTAIKSELQNIVANENKQAPLSDQKIVDQLKQAGFDISRRTVVKYRDALGIPTSRNRKR,-0.28
22,HMVVEGMQFDRGYLSQYMVTDNEKMVADLENPYILITDKKISNIQEILPLLESILQSSRPLLIIADD,-0.0369
23,HMVVGYRYVTNVANAVNFRQKPSASSTIITTIPYGTRIGYVEDANSEYARVKYDNMYGYVAKFYLSNYSPP,-3.68
24,HMVVLNQEQIKFIDHYLQVSKVRYVDVRSELTDHIATAVELKMQDEALDFYEAFKAFIAVNKSQLLQRN,-1.06
25,HMVVNERIKKLRRSLDLTQQEFADRIGVKRNTIANYEIGRNEPIDSVLELIVREFGVSKQWLLDGTGEMF,-1.43
26,HMVVPRSFKYEVLAHGGWAGNAQRYQTKEEALHAGLALSRRWTAVEDYRAVPSDDLPNQPAL,-0.231
27,HMVVPSNPDELKGSFSLAEVASGYGLEVAAILEKAGWPADTDPNVKMRDAANAIGRDSTDIRNAVKALLKS,0.156
